Earlier results in article PMC2888830.

Biological target: integrin αIIbβ3 (Homo sapiens) (UniProt P08514)

For disagregin (from UniProt P36235), the Kd is listed as 40 nM.
